# Assay results as given in US20250136686A1 (GUANGDONG KEGUANDA PHARMACEUTICAL TECHNOLOGY, published 2025).
# Positions count from the first letter of the chain named.
# T1: CD101 (human, UniProt Q93033 21-1021)
# T1 chain: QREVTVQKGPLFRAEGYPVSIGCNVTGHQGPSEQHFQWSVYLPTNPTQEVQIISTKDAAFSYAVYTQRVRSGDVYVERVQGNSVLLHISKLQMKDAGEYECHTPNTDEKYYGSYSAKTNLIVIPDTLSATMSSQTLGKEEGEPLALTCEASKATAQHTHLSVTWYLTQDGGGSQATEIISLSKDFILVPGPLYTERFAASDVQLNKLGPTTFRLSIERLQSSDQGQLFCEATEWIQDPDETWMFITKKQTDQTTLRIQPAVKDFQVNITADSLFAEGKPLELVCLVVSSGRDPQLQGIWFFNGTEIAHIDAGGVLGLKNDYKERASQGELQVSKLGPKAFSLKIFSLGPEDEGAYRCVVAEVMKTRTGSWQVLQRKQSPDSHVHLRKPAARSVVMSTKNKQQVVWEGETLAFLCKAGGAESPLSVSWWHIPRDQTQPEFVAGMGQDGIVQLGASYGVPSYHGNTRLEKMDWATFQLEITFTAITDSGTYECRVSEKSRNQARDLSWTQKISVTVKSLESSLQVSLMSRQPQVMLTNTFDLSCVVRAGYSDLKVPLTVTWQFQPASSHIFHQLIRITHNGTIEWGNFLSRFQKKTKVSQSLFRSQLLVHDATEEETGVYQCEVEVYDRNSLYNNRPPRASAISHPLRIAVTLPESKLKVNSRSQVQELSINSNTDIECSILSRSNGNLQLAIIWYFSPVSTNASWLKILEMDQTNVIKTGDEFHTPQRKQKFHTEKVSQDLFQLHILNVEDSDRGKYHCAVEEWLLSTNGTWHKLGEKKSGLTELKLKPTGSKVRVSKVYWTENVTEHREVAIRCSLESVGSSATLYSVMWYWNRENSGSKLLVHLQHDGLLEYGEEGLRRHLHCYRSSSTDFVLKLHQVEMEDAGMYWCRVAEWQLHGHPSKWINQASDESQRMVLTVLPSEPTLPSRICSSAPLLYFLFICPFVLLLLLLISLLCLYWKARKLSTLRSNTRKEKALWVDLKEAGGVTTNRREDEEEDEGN
# T2: CD101 (human, UniProt Q93033 21-1021)
# T2 sequence (looked up): T1 chain
# B1: 19-A11-H3-B11-VH3VL2 humanized antibody (hu.CA4) (antibody, V domains shown)
# VH: EVQLVQSGAEVKKPGASVKVSCKASGFTLTEYTIHWVRQAPGQGLEWIGWFYPGSGGIKYNEKFQDRVTLTADTSISTVYMELSRLRSDDTVVYFCARHAFYRNYEYFDVWGTGTMVTVSS
# VL: DIVMTQAPLSLPVTPGTPASISCRSSKSLLHSNGITYLYWYLQKPGQSPQLLIYQMSNLASGVPDRFSSSGSGTDFTLKISRVEAEDVGVYYCAQNLELPLTFGAGTKLEIK
# B2: humanized antibody VH1-VL1 (hu.CA1) (antibody, V domains shown)
# VH: B1 VH with T74E, V92A
# VL: B1 VL with L9F
# B3: humanized antibody VH1-VL2 (hu.CA2) (antibody, V domains shown)
# VH: B1 VH with T74E, V92A
# VL: B1 VL
# B4: 19-A11-H3-B11 chimeric antibody (CA1) (antibody, V domains shown)
# VH: EVQLQQSGAELVRPGASVKLSCKASGFTLTEYTIHWVKQRSGQGLEWIGWFYPGSGGIKYNEKFKDKATLTADESSSTVYMELSRLTSEDSAVYFCARHAFYRNYEYFDVWGTGTTVTVSS
# VL: B1 VL with P8A, L9F, L11N, P15L, P18S, K79R, I111L
# B5: humanized antibody VH3-VL1 (hu.CA3) (antibody, V domains shown)
# VH: B1 VH
# VL: B1 VL with L9F
# B6: humanized antibody VH2-VL2 (antibody, V domains shown)
# VH: B1 VH with T74E, I76A, R85S, D89E, V92A
# VL: B1 VL
# notes: IgG1, kappa; tested as culture supernatant; also called VH-HM2 / VL-HM2
# B7: humanized antibody VH4-VL3 (antibody, V domains shown)
# VH: B1 VH with R38K, T74E, I76S, V92A
# VL: B1 VL with L9F, L11S, P15L, L42Q, K44R, Q50R
# notes: IgG1, kappa; tested as culture supernatant; also called VH-HM4 / VL-HM3
# B8: humanized antibody VH4-VL2 (antibody, V domains shown)
# VH: B1 VH with R38K, T74E, I76S, V92A
# VL: B1 VL
# notes: IgG1, kappa; tested as culture supernatant; also called VH-HM4 / VL-HM2
# B9: humanized antibody VH3-VL3 (antibody, V domains shown)
# VH: B1 VH
# VL: B1 VL with L9F, L11S, P15L, L42Q, K44R, Q50R
# notes: IgG1, kappa; tested as culture supernatant; also called VH-HM3 / VL-HM3
# B10: humanized antibody VH1-VL3 (antibody, V domains shown)
# VH: B1 VH with T74E, V92A
# VL: B1 VL with L9F, L11S, P15L, L42Q, K44R, Q50R
# notes: IgG1, kappa; tested as culture supernatant; also called VH-HM1 / VL-HM3
# B11: humanized antibody VH2-VL1 (antibody, V domains shown)
# VH: B1 VH with T74E, I76A, R85S, D89E, V92A
# VL: B1 VL with L9F
# notes: IgG1, kappa; tested as culture supernatant; also called VH-HM2 / VL-HM1
# B12: humanized antibody VH2-VL3 (antibody, V domains shown)
# VH: B1 VH with T74E, I76A, R85S, D89E, V92A
# VL: B1 VL with L9F, L11S, P15L, L42Q, K44R, Q50R
# notes: IgG1, kappa; tested as culture supernatant; also called VH-HM2 / VL-HM3
# B13: humanized antibody VH4-VL1 (antibody, V domains shown)
# VH: B1 VH with R38K, T74E, I76S, V92A
# VL: B1 VL with L9F
# notes: IgG1, kappa; tested as culture supernatant; also called VH-HM4 / VL-HM1
# Biological target: T1, CD101
# Assay: FACS
row,EC50,Binder
1,8.49 µg/mL,B1
2,7.9 µg/mL,B2
3,9.1 µg/mL,B3
4,6.62 µg/mL,B4
5,11 µg/mL,B5

# Biological target: T2, CD101
# Assay: cell-based or functional assay
"inhibitory effect for CD101 (flow cytometry of CD101 on Jurkat cells overexpressing CD101, 3 h, 1,600 ng/mL)","inhibitory effect for CD101 (flow cytometry of CD101 on Jurkat cells overexpressing CD101, 8 h, 1,600 ng/mL)",Binder
~80%,≥ 90%,B1
~80%,≥ 90%,B2
~80%,≥ 90%,B3
~80%,≥ 90%,B4
~80%,≥ 90%,B5

# Biological target: T2, CD101
# Assay: FACS, culture supernatant on 293F-CD101 cells
# Experimental: Expression vectors for humanized antibodies carrying a designed heavy-chain or light-chain sequence were transiently transfected into 293F cells in pairs according to a standard protocol. Specifically, PBS was added at 2 mL/well to a 6-well plate, then 2 μg of a pcDNA3.4-IgG1 expression vector and 2 μg of a pcDNA3.4-IgKc expression vector were added, and thorough mixing was conducted by pipetting up and down. 12 μL of a LVTransm transfection reagent was added, then thorough mixing was immediately conducted by pipetting up and down, and the plate was allowed to stand at room temperature for 10 min. A DNA/LVTransm complex was added to 3 mL of 293F cells, and gentle shaking was conducted for thorough mixing. The cells were further cultured for 3 d in a 37° C. and 5% CO₂ incubator, and a culture supernatant was collected through centrifugation and tested by FACS.
# FACS was conducted according to a standard protocol. […] Cells were washed with PBS 3 times. 100 μL of a secondary antibody (PE-anti-human IgG, which was diluted 1:200) was added, thorough mixing was conducted, and incubation was conducted for 45 min at room temperature in the dark. Cells were washed with PBS 3 times and then resuspended with 500 μL of PBS. A fluorescence intensity was read by a multimode microplate reader for FACS analysis. […] In the follow-up experiments, the four combinations of VH1-VL1, VH1-VL2, VH3-VL1, and VH3-VL2 (hu.CA1 to hu.CA4) were taken as examples for antibody purification and affinity testing.
row,binding result,Binder
1,binds,B6
2,binds,B7
3,binds,B8
4,binds,B9
5,binds,B10
6,binds,B11
7,binds,B12
8,binds,B13
